Bridges are numbered along the chain shown (N, C = ends). [ ]: non-standard residue; d: D form. 1Nal = N[C@@H](Cc1cccc2ccccc12)C(=O)O; NMeR = CN[C@@H](CCCNC(=N)N)C(=O)O; NMeK = CN[C@@H](CCCCN)C(=O)O; PEG1 = NCCOCCC(=O)O; AEA = NCCOCC(=O)O; βAla = NCCC(=O)O
T1: IL23R_huFC (human, UniProt Q5VWK5 24-353)
T1 sequence (looked up): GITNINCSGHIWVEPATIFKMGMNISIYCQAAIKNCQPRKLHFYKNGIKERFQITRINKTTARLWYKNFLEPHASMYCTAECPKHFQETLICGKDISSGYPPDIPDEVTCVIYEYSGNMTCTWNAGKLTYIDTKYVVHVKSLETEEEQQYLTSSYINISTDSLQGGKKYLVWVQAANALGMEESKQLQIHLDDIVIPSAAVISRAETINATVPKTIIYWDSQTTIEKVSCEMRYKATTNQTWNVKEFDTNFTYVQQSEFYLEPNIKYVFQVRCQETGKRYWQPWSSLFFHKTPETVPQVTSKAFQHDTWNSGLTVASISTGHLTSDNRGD

B1: Ac-CQTWQCYWR-[N-MeLys]-NG-[AEA]-[(D)-Lys]-NH2 (peptide)
peptide: Ac-CQTWQCYWR[NMeK]NG[AEA][dK]-NH2
modifications: disulfide 1-6
SMILES: CC(=O)N[C@H]1CSSC[C@@H](C(=O)N[C@@H](Cc2ccc(O)cc2)C(=O)N[C@@H](Cc2c[nH]c3ccccc23)C(=O)N[C@@H](CCCNC(=N)N)C(=O)N(C)[C@@H](CCCCN)C(=O)N[C@@H](CC(N)=O)C(=O)NCC(=O)NCCOCC(=O)N[C@H](CCCCN)C(N)=O)NC(=O)[C@H](CCC(N)=O)NC(=O)[C@H](Cc2c[nH]c3ccccc23)NC(=O)[C@H]([C@@H](C)O)NC(=O)[C@H](CCC(N)=O)NC1=O
B2: Ac-CRDWQCYW-[(D)Arg]-KFG-[AEP]-[(D)-Lys]-NH2 (peptide)
peptide: Ac-CRDWQCYW[dR]KFG[PEG1][dK]-NH2
modifications: disulfide 1-6
SMILES: CC(=O)N[C@H]1CSSC[C@@H](C(=O)N[C@@H](Cc2ccc(O)cc2)C(=O)N[C@@H](Cc2c[nH]c3ccccc23)C(=O)N[C@H](CCCNC(=N)N)C(=O)N[C@@H](CCCCN)C(=O)N[C@@H](Cc2ccccc2)C(=O)NCC(=O)NCCOCCC(=O)N[C@H](CCCCN)C(N)=O)NC(=O)[C@H](CCC(N)=O)NC(=O)[C@H](Cc2c[nH]c3ccccc23)NC(=O)[C@H](CC(=O)O)NC(=O)[C@H](CCCNC(=N)N)NC1=O
B3: Ac-CRDWQCYW-[(D)Arg]-[(D)Lys]-FG-[AEP]-[(D)-Lys]-NH2 (peptide)
peptide: Ac-CRDWQCYW[dR][dK]FG[PEG1][dK]-NH2
modifications: disulfide 1-6
SMILES: CC(=O)N[C@H]1CSSC[C@@H](C(=O)N[C@@H](Cc2ccc(O)cc2)C(=O)N[C@@H](Cc2c[nH]c3ccccc23)C(=O)N[C@H](CCCNC(=N)N)C(=O)N[C@H](CCCCN)C(=O)N[C@@H](Cc2ccccc2)C(=O)NCC(=O)NCCOCCC(=O)N[C@H](CCCCN)C(N)=O)NC(=O)[C@H](CCC(N)=O)NC(=O)[C@H](Cc2c[nH]c3ccccc23)NC(=O)[C@H](CC(=O)O)NC(=O)[C@H](CCCNC(=N)N)NC1=O
B4: Ac-CRDWQCYW-[N-MeArg]-KFG-[AEP]-[(D)-Lys]-NH2 (peptide)
peptide: Ac-CRDWQCYW[NMeR]KFG[PEG1][dK]-NH2
modifications: disulfide 1-6
SMILES: CC(=O)N[C@H]1CSSC[C@@H](C(=O)N[C@@H](Cc2ccc(O)cc2)C(=O)N[C@@H](Cc2c[nH]c3ccccc23)C(=O)N(C)[C@@H](CCCNC(=N)N)C(=O)N[C@@H](CCCCN)C(=O)N[C@@H](Cc2ccccc2)C(=O)NCC(=O)NCCOCCC(=O)N[C@H](CCCCN)C(N)=O)NC(=O)[C@H](CCC(N)=O)NC(=O)[C@H](Cc2c[nH]c3ccccc23)NC(=O)[C@H](CC(=O)O)NC(=O)[C@H](CCCNC(=N)N)NC1=O
B5: Ac-CRDWQCYWR-[(D)Lys]-FG-[AEP]-[(D)-Lys]-NH2 (peptide)
peptide: Ac-CRDWQCYWR[dK]FG[PEG1][dK]-NH2
modifications: disulfide 1-6
SMILES: CC(=O)N[C@H]1CSSC[C@@H](C(=O)N[C@@H](Cc2ccc(O)cc2)C(=O)N[C@@H](Cc2c[nH]c3ccccc23)C(=O)N[C@@H](CCCNC(=N)N)C(=O)N[C@H](CCCCN)C(=O)N[C@@H](Cc2ccccc2)C(=O)NCC(=O)NCCOCCC(=O)N[C@H](CCCCN)C(N)=O)NC(=O)[C@H](CCC(N)=O)NC(=O)[C@H](Cc2c[nH]c3ccccc23)NC(=O)[C@H](CC(=O)O)NC(=O)[C@H](CCCNC(=N)N)NC1=O
B6: Ac-CADWVCY-[1-Nal]-FTFG-NH2 (peptide)
peptide: Ac-CADWVCY[1Nal]FTFG-NH2
modifications: disulfide 1-6
SMILES: CC(=O)N[C@H]1CSSC[C@@H](C(=O)N[C@@H](Cc2ccc(O)cc2)C(=O)N[C@@H](Cc2cccc3ccccc23)C(=O)N[C@@H](Cc2ccccc2)C(=O)N[C@H](C(=O)N[C@@H](Cc2ccccc2)C(=O)NCC(N)=O)[C@@H](C)O)NC(=O)[C@H](C(C)C)NC(=O)[C@H](Cc2c[nH]c3ccccc23)NC(=O)[C@H](CC(=O)O)NC(=O)[C@H](C)NC1=O
B7: Ac-CADWVCY-[1-Nal]-H-[(D)Ala]-FG-NH2 (peptide)
peptide: Ac-CADWVCY[1Nal]H[dA]FG-NH2
modifications: disulfide 1-6
SMILES: CC(=O)N[C@H]1CSSC[C@@H](C(=O)N[C@@H](Cc2ccc(O)cc2)C(=O)N[C@@H](Cc2cccc3ccccc23)C(=O)N[C@@H](Cc2c[nH]cn2)C(=O)N[C@H](C)C(=O)N[C@@H](Cc2ccccc2)C(=O)NCC(N)=O)NC(=O)[C@H](C(C)C)NC(=O)[C@H](Cc2c[nH]c3ccccc23)NC(=O)[C@H](CC(=O)O)NC(=O)[C@H](C)NC1=O
B8: Ac-CADWVCY-[1-Nal]-H-[b-Ala]-FG-NH2 (peptide)
peptide: Ac-CADWVCY[1Nal]H[βAla]FG-NH2
modifications: disulfide 1-6
SMILES: CC(=O)N[C@H]1CSSC[C@@H](C(=O)N[C@@H](Cc2ccc(O)cc2)C(=O)N[C@@H](Cc2cccc3ccccc23)C(=O)N[C@@H](Cc2c[nH]cn2)C(=O)NCCC(=O)N[C@@H](Cc2ccccc2)C(=O)NCC(N)=O)NC(=O)[C@H](C(C)C)NC(=O)[C@H](Cc2c[nH]c3ccccc23)NC(=O)[C@H](CC(=O)O)NC(=O)[C@H](C)NC1=O
B9: Ac-CADWVCY-[1-Nal]-[(D)Ala]-TFG-NH2 (peptide)
peptide: Ac-CADWVCY[1Nal][dA]TFG-NH2
modifications: disulfide 1-6
SMILES: CC(=O)N[C@H]1CSSC[C@@H](C(=O)N[C@@H](Cc2ccc(O)cc2)C(=O)N[C@@H](Cc2cccc3ccccc23)C(=O)N[C@H](C)C(=O)N[C@H](C(=O)N[C@@H](Cc2ccccc2)C(=O)NCC(N)=O)[C@@H](C)O)NC(=O)[C@H](C(C)C)NC(=O)[C@H](Cc2c[nH]c3ccccc23)NC(=O)[C@H](CC(=O)O)NC(=O)[C@H](C)NC1=O

molecular target: T1, IL23R_huFC; assay: IL23-IL23R competitive ELISA

IC50, > 1 µM:
B1, B2, B3, B4, B5, Ac-CADWECYWHTFG-NH2 (disulfide 1-6 (inferred)) [Ac-CADWECYWHTFG-NH2], Ac-CADWKCYWHTFG-OH (disulfide 1-6 (inferred)) [Ac-CADWKCYWHTFG-OH], Ac-CADWVCYWHKFG-OH (disulfide 1-6 (inferred)) [Ac-CADWVCYWHKFG-OH], Ac-CADWVCYWHTF[dK]-OH (disulfide 1-6 (inferred)) [Ac-CADWVCYWHTF-[(D)Lys]-OH], Ac-CADWVCYWHTKG-OH (disulfide 1-6 (inferred)) [Ac-CADWVCYWHTKG-OH], Ac-CADWVCYWKTFG-OH (disulfide 1-6 (inferred)) [Ac-CADWVCYWKTFG-OH], Ac-CATWVCYWHTFG-NH2 (disulfide 1-6 (inferred)) [Ac-CATWVCYWHTFG-NH2], Ac-CKDWVCYWHTFG-OH (disulfide 1-6 (inferred)) [Ac-CKDWVCYWHTFG-OH], H-CADWVCYAHTFG-NH2 (disulfide 1-6 (inferred)) [Hy-CADWVCYAHTFG-NH2], CADWVCYXHTFG (not fully specified; [1-BIP]; -NH2; disulfide) [Hy-CADWVCY-[1-BIP]-HTFG-NH2], B6, B7, B8, B9

From patent US20190300590A1 (PROTAGONIST THERAPEUTICS, published 2019)
